One molecule from US20160289698A1 (TRUSTEES OF DARTMOUTH COLLEGE, published 2016) can be followed below.

The target of one assay is T1, KISS ME DEADLY 4 (KMD4) (Arabidopsis, UniProt Q9M1Y1 1-418).
T1 construct: Full-length protein; LexA fusion in yeast two-hybrid, YFP^N or YFP^C fusion in BiFC; also called At3g59940
T1 sequence (looked up): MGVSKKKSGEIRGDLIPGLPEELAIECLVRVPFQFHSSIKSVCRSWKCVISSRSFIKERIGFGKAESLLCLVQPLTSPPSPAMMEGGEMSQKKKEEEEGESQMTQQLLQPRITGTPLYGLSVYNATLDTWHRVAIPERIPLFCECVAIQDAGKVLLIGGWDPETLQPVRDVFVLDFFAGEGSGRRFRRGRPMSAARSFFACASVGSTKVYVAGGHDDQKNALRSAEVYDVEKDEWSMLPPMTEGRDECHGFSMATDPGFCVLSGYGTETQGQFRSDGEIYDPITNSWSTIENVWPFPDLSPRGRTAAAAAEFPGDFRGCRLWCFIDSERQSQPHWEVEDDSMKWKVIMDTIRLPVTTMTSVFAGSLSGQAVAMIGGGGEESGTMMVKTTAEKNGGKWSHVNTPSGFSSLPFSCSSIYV
Put plainly: yeast two-hybrid (LexA-KMD bait, B42-ARR prey, X-gal). An excerpt: (§1) The DUPLEX-A™ system (OriGene Technologies) was used for yeast two-hybrid analysis of interactions. KMD cDNAs were cloned into the pGilda bait vector, which produces an in-frame fusion with the LexA DNA-binding domain. Type-B ARR coding sequences were cloned into the pJG4-5 prey vector, which produces a B42 activation domain. The yeast strain EGY48 (MATa, trp1, his3, ura3, leu2::6 LexAop-LEU2) that contains the lacZ reporter plasmid pSH18-34 was transformed with the appropriate “bait” and “prey” plasmids. Interactions were tested on 5-bromo-4-chloro-3-indolyl-p-D-galactopyranoside (X-gal) medium (Ryu, et al. (2005) Cell 120(3): 395-406).
(§2) The KMD proteins also interacted with ARR20 (type-B ARR subfamily-3), but not with ARR19 (subfamily-2) and ARR21 (subfamily-3). […] All four KMD proteins interacted with both ARR1 and ARR12 in a BiFC assay. Strong fluorescence was detected in the nuclei of cells, consistent with the subcellular localization of the type-B ARRs (Hwang & Sheen J (2001) Nature 413(6854):383-389; Mason, et al. (2004) Plant Physiol. 135(2):927-937).

Another assay addresses T2, KISS ME DEADLY 3 (KMD3) (Arabidopsis, UniProt O80582 1-409).
T2 construct: Full-length protein; LexA fusion in yeast two-hybrid, YFP^N or YFP^C fusion in BiFC; also called At2g44130
T2 sequence (looked up): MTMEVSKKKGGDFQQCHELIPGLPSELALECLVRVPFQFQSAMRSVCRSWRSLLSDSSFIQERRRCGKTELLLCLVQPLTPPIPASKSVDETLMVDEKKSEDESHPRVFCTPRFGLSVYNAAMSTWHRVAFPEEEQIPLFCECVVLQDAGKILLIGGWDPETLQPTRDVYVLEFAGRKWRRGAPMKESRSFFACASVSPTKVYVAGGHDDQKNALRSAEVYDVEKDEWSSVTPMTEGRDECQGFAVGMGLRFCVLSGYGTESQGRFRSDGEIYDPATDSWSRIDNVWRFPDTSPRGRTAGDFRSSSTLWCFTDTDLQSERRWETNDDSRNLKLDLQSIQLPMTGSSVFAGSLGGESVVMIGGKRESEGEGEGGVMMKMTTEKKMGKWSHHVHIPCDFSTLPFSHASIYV
The description is as above.
Text: as §1, §2

B1: ARR19 (subfamily-2) (other, Arabidopsis, UniProt Q9M9B9 1-407, looked up)
chain: MLVGKISGYEDNTRSLERETSEITSLLSQFPGNTNVLVVDTNFTTLLNMKQIMKQYAYQVSIETDAEKALAFLTSCKHEINIVIWDFHMPGIDGLQALKSITSKLDLPVVIMSDDNQTESVMKATFYGACDYVVKPVKEEVMANIWQHIVRKRLIFKPDVAPPKPRMTWSEVFQPVQSHLVPTDGLDRDHFDSITINGGNGIQNMEKKQGKKPRKPRMTWTEELHQKFLEAIEIIGGIEKANPKVLVECLQEMRIEGITRSNVASHLQKHRINLEENQIPQQTQGNGWATAYGTLAPSLQGSDNVNTTIPSYLMNGPATLNQIQQNQYQNGFLTMNNNQIITNPPPPLPYLDHHHQQQHQSSPQFNYLMNNEELLQASGLSATDLELTYPSLPYDPQEYLINGYNYN
On to B1, for which the binding result in the assay with KISS ME DEADLY 4 (KMD4) and with KISS ME DEADLY 3 (KMD3) was “no binding” in each case.
